Data as given in patent publication US20050287643A1 (YALE UNIVERSITY, published 2005).

How the values were obtained:
Mena1-112 EVH1 domain [1] = target: T1, Mena1-112 EVH1 domain (UniProt Q03173 1-112); assay: fluorescence polarization competition against pGolemi^Flu
T1 construct: range 1-112

KIX domain of CBP = KIX domain of CBP (Homo sapiens (Human), UniProt Q92793 587-666); assay: method not stated (supplemental information)
Mena1-112 EVH1 domain [2] = target: T1, Mena1-112 EVH1 domain; assay: tryptophan fluorescence perturbation

T1 sequence (Q03173 1-112 limits assumed): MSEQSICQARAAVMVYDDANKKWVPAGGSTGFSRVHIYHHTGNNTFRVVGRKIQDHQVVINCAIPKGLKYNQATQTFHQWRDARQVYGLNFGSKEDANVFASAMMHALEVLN
Sequence of KIX domain of CBP (Q92793 587-666 limits assumed, form in doubt): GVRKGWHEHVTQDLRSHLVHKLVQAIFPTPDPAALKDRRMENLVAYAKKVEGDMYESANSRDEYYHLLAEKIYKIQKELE

B1: ActA11 (peptide)
peptide: FEFPPPPTDEE
notes: domain: PPII repeat 2; also called 11 residue peptide comprising PPII repeat 2 of L. monocytogenes ActA
IC50 (Mena1-112 EVH1 domain [1]): 4 µM

PFPPTPPGEEAPVEDLIRFYNDLQQYLNVV (designed binder) [pGolemi]
Kd (KIX domain of CBP): 15 µM

PFPPTPP [PPII7]
Kd (Mena1-112 EVH1 domain [2]): 480 µM
